From article PMC9201872
pKd: −log10 of the molar value. Like-named read-outs stand apart in the source and are kept apart here. Values belong to the substance of their own block, whether it stands above or below them.

Tests used:
[1] = target: TIM-SNAP-HA (Timeless, S-TIM) (Drosophila melanogaster); assay: pull-down
[2] = target: TIM-SNAP-HA (Timeless, S-TIM) (Drosophila melanogaster); assay: native gel or EMSA
[3] = target: TIM-SNAP-HA (Timeless, S-TIM) (Drosophila melanogaster); assay: pull-down; remark: listed apart in the source
[4] = target: TIM-SNAP-HA (Timeless, S-TIM) (Drosophila melanogaster); assay: pull-down; remark: listed apart in the source

Sequence of TIM-SNAP-HA (Timeless, S-TIM) (Drosophila melanogaster) (A4V040 whole entry): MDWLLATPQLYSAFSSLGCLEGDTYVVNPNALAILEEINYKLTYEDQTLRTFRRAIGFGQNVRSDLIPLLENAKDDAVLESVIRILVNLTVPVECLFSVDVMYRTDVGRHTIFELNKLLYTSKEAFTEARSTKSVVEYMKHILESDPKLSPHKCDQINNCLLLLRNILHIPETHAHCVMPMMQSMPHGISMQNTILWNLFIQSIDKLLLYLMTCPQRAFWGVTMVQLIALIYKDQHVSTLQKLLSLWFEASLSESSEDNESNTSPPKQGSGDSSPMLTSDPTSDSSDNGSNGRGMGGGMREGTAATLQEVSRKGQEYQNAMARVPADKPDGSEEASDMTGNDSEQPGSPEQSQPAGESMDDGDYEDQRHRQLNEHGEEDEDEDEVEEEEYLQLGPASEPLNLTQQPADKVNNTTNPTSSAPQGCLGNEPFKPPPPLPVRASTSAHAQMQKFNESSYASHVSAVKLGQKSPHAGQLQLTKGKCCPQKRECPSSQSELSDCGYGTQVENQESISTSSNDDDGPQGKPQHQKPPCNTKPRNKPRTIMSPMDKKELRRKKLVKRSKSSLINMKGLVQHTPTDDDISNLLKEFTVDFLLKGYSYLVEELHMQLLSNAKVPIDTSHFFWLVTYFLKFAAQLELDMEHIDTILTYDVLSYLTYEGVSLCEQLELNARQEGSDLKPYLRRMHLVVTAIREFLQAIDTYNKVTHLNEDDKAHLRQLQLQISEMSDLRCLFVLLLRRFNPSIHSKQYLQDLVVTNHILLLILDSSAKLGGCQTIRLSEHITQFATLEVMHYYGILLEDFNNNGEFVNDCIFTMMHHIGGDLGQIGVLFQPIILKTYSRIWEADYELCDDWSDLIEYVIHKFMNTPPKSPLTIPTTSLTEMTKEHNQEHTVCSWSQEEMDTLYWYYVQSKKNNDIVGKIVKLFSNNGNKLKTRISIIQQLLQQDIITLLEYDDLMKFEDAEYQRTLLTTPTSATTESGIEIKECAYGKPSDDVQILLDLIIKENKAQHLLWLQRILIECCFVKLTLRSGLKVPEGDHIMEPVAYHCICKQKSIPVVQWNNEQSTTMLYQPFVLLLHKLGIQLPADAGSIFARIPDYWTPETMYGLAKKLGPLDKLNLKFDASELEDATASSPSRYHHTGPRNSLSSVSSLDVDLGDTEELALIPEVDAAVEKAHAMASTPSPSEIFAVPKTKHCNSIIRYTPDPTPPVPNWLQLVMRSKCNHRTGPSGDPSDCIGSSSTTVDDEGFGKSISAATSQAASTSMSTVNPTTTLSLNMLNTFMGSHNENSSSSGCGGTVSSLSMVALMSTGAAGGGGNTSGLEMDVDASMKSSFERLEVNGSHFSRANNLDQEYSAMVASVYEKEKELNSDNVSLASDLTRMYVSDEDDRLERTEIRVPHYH

- fold difference in KD against CRYΔ [1]: 35 fold
Substance: CLIP-CRY W394F (from UniProt O77059 1-539) (natural protein)

- pKd [1]: 5.77
- stoichiometry N [2]: 1.08
- pKd [3]: 5.82
Substance: CLIP-CRYΔ (residue 1-520) (from UniProt O77059 1-520) (domain or fragment)

- fold greater affinity than CRYΔ [1]: 10 fold
- fold greater affinity than CRYΔ [4]: 10 fold
Substance: CLIP-CRY H377L (from UniProt O77059 1-539) (natural protein)

- pKd [1]: 4.74
Substance: CLIP-CRY H377A (from UniProt O77059 1-539) (natural protein)
